The term Kd denotes the constant that tells how readily two partners part at equilibrium. A high value points to weaker binding.

Our source for the Kd values is patent publication US20200199241A1 (Chugai, published 2020).

The target in the assay is T1, human FcRn (soluble human FcRn complexed with β2-microglobulin) (human, UniProt P61769 21-119, limits assumed).
T1 construct: also called hFcRn
Briefly: SPR, pH 7.0.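 Note: antibodies captured on a Protein L sensor chip with human FcRn injected as analyte, KD calculated from fitted association and dissociation rate constants.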

Numbering of substitutions follows the chain as printed.

T1 sequence (chain, as listed by the source limits assumed, chain 1 of 2): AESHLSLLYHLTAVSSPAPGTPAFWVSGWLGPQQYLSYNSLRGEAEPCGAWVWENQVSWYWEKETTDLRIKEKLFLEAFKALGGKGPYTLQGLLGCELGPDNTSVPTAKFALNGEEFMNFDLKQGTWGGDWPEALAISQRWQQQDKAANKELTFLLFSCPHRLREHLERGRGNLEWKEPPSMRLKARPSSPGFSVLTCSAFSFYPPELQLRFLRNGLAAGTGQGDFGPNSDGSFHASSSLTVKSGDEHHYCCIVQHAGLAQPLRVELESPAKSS
T1 sequence (P61769 21-119 limits assumed, chain 2 of 2): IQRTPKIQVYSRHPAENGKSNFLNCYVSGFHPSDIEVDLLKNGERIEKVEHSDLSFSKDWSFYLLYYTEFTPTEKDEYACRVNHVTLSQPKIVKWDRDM

B1: IgG1-F228 (antibody)
heavy: QVQLQESGPGLVKPSETLSLTCAVSGHSISHDHAWSWVRQPPGEGLEWIGFISYSGITNYNPSLQGRVTISRDNSKNTLYLQMNSLRAEDTAVYYCARSLARTTAMDYWGEGTLVTVSSASTKGPSVFPLAPSSKSTSGGTAALGCLVKDYFPEPVTVSWNSGALTSGVHTFPAVLQSSGLYSLSSVVTVPSSSLGTQTYICNVNHKPSNTKVDKKVEPKSCDKTHTCPPCPAPELLGGPSVFLFPPKPKDTLYISRTPEVTCVVVDVSHEDPEVKFNWYVDGVEVHNAKTKPREEQYNSTYRVVSVLTVEHQDWLNGKEYKCKVSNKALPAPIEKTISKAKGQPREPQVYTLPPSRDELTKNQVSLTCLVKGFYPSDIAVEWESNGQPENNYKTTPPVLDSDGSFFLYSKLTVDKSRWQQGNVFSCSVMHEALHYHYTQKSLSLSP
light: not shown
notes: EU numbering; copies: 2 + 2
The molecule B1 displayed a dissociation constant (Kd) of 230 nM.

B2: IgG1-F258 (antibody)
heavy: B1 heavy with T309Q, E311L, M430Y
light: not shown
notes: EU numbering; copies: 2 + 2
B2 gave a Kd of 320 nM.

B3: IgG1-F238 (antibody)
heavy: B1 heavy with E311L, M430D
light: not shown
notes: EU numbering; copies: 2 + 2
On to B3, for which binding was put at a Kd of 740 nM.

B4: IgG1-F257 (antibody)
heavy: B1 heavy with T309A, E311L, M430Y
light: not shown
notes: EU numbering; copies: 2 + 2
With B4, the affinity, expressed as Kd, was 500 nM.

B5: IgG1-F256 (antibody)
heavy: B1 heavy with Y254W, T309Q, E311L, Q313A, M430Y
light: not shown
notes: EU numbering; copies: 2 + 2
B5 showed a dissociation constant Kd of 54 nM.

B6: IgG1-F242 (antibody)
heavy: B1 heavy with E311L, M430H
light: not shown
notes: EU numbering; copies: 2 + 2
For B6, the Kd turned out to be 850 nM.

B7: IgG1-F255 (antibody)
heavy: B1 heavy with Y254W, E311L, Q313A, M430Y
light: not shown
notes: EU numbering; copies: 2 + 2
On to B7, for which the dissociation constant (Kd) was 110 nM.

B8: IgG1-F229 (antibody)
heavy: B1 heavy with R257E, E311L
light: not shown
notes: EU numbering; copies: 2 + 2
Molecule B8 returned a Kd of 510 nM.

B9: IgG1-F268 (antibody)
heavy: B1 heavy with P240A, E311L, M430F
light: not shown
notes: EU numbering; copies: 2 + 2
B9 returned a Kd of 630 nM.

B10: IgG1-F266 (antibody)
heavy: B1 heavy with T309A, E311L, E384A, M430Y
light: not shown
notes: EU numbering; copies: 2 + 2
B10 returned a Kd of 470 nM.

B11: IgG1-F241 (antibody)
heavy: B1 heavy with E311L, M430G
light: not shown
notes: EU numbering; copies: 2 + 2
For the molecule B11, the dissociation constant (Kd) worked out at 1500 nM.

B12: IgG1-F243 (antibody)
heavy: B1 heavy with E311L, M430I
light: not shown
notes: EU numbering; copies: 2 + 2
In turn, B12 came in with a Kd of 180 nM.

B13: IgG1-F275 (antibody)
heavy: B1 heavy with S241K, V310P, E311L, E384A
light: not shown
notes: EU numbering; copies: 2 + 2
In turn, B13 showed a Kd of 42 nM.

B14: IgG1-F244 (antibody)
heavy: B1 heavy with E311L, M430K
light: not shown
notes: EU numbering; copies: 2 + 2
Take B14: the Kd worked out at 1300 nM.

B15: IgG1-F265 (antibody)
heavy: B1 heavy with E311L, E384A, M430Y
light: not shown
notes: EU numbering; copies: 2 + 2
Turning to B15, the Kd was 680 nM. This Kd is about 1.9-fold lower than that of the molecule before.

B16: IgG1-F254 (antibody)
heavy: B1 heavy with Y254W, T309Q, E311L, M430Y
light: not shown
notes: EU numbering; copies: 2 + 2
In turn, B16 had an equilibrium dissociation constant (Kd) of 75 nM.

B17: IgG1-F267 (antibody)
heavy: B1 heavy with T309Q, E311L, E384A, M430Y
light: not shown
notes: EU numbering; copies: 2 + 2
B17 displayed a Kd of 320 nM.

B18: IgG1-F246 (antibody)
heavy: B1 heavy with E311L, M430P
light: not shown
notes: EU numbering; copies: 2 + 2
Take B18: binding was characterised by a dissociation constant (Kd) of 1100 nM.

B19: IgG1-F252 (antibody)
heavy: B1 heavy with E311L, M430W
light: not shown
notes: EU numbering; copies: 2 + 2
Regarding B19, binding was put at a Kd of 1000 nM. This Kd and that of the molecule before are within 1.5-fold of each other.

B20: IgG1-F263 (antibody)
heavy: B1 heavy with T309Q, E311L, Q313H
light: not shown
notes: EU numbering; copies: 2 + 2
In turn, B20 showed a Kd of 110 nM.

B21: IgG1-F251 (antibody)
heavy: B1 heavy with E311L, M430V
light: not shown
notes: EU numbering; copies: 2 + 2
For the molecule B21, binding was characterised by a dissociation constant (Kd) of 190 nM.

B22: IgG1-F250 (antibody)
heavy: B1 heavy with E311L, M430T
light: not shown
notes: EU numbering; copies: 2 + 2
As for B22, the Kd is 290 nM. Compared with the last molecule, the Kd is about 1.5-fold higher.

B23: IgG1-F270 (antibody)
heavy: B1 heavy with E311L, N327G, M430F
light: not shown
notes: EU numbering; copies: 2 + 2
Consider B23, for which the Kd turned out to be 660 nM.

B24: IgG1-F253 (antibody)
heavy: B1 heavy with E311L, M430Y
light: not shown
notes: EU numbering; copies: 2 + 2
As to B24, binding was characterised by a dissociation constant (Kd) of 710 nM.

B25: IgG1-F247 (antibody)
heavy: B1 heavy with E311L, M430Q
light: not shown
notes: EU numbering; copies: 2 + 2
B25 gave a Kd of 440 nM.

B26: IgG1-F272 (antibody)
heavy: B1 heavy with E311L, E382A, M430F
light: not shown
notes: EU numbering; copies: 2 + 2
With B26, the Kd came to 680 nM.

B27: IgG1-F249 (antibody)
heavy: B1 heavy with E311L, M430S
light: not shown
notes: EU numbering; copies: 2 + 2
As to B27, the affinity, expressed as Kd, was 640 nM.

B28: IgG1-F261 (antibody)
heavy: B1 heavy with T309Q, E311L, Q313A
light: not shown
notes: EU numbering; copies: 2 + 2
Molecule B28 registered a dissociation constant Kd of 84 nM.

B29: IgG1-F240 (antibody)
heavy: B1 heavy with E311L, M430F
light: not shown
notes: EU numbering; copies: 2 + 2
As to B29, binding was characterised by a dissociation constant (Kd) of 720 nM.

B30: IgG1-F259 (antibody)
heavy: B1 heavy with D272F, E311L
light: not shown
notes: EU numbering; copies: 2 + 2
Molecule B30 came in with a Kd of 280 nM.

B31: IgG1-F237 (antibody)
heavy: B1 heavy with E311L, M430A
light: not shown
notes: EU numbering; copies: 2 + 2
B31 registered a Kd of 230 nM.

B32: IgG1-F264 (antibody)
heavy: B1 heavy with E311L, E384A
light: not shown
notes: EU numbering; copies: 2 + 2
B32 had a Kd of 280 nM.

B33: IgG1-F236 (antibody)
heavy: B1 heavy with K250I, Y254M, E311L, M430L
light: not shown
notes: EU numbering; copies: 2 + 2
As to B33, the Kd is 890 nM. This Kd lies about 3.2-fold higher than the previous one.

B34: IgG1-F269 (antibody)
heavy: B1 heavy with V307A, E311L, M430F
light: not shown
notes: EU numbering; copies: 2 + 2
Molecule B34 showed a Kd of 520 nM.

B35: IgG1-F274 (antibody)
heavy: B1 heavy with E311L, E382A, E384A, M430F
light: not shown
notes: EU numbering; copies: 2 + 2
Molecule B35 had a Kd of 760 nM.

B36: IgG1-F260 (antibody)
heavy: B1 heavy with T309A, E311L, Q313A
light: not shown
notes: EU numbering; copies: 2 + 2
The molecule B36 showed a Kd of 130 nM.

B37: IgG1-F230 (antibody)
heavy: B1 heavy with E311L, P389E
light: not shown
notes: EU numbering; copies: 2 + 2
As to B37, binding was put at a Kd of 250 nM. This Kd lies about 1.9-fold higher than the previous one.

B38: IgG1-F262 (antibody)
heavy: B1 heavy with T309A, E311L, Q313H
light: not shown
notes: EU numbering; copies: 2 + 2
Turning to B38, the Kd turned out to be 190 nM. The Kd values of the last two molecules are within 1.5-fold of each other.

B39: IgG1-F245 (antibody)
heavy: B1 heavy with E311L, M430N
light: not shown
notes: EU numbering; copies: 2 + 2
Consider B39, for which binding was characterised by a dissociation constant (Kd) of 470 nM. Compared with the last molecule, the Kd is about 2.5-fold higher.
